“And” between values parts separate entries of the source, which are not always exact repeats. Equal entries are not always repeated.
Details: Homo sapiens; pH 7.8; Thermal; DSC; potassium phosphate 2 mM; transition: 2; reversible: Yes; whole UniProt chain shown

B1: Superoxide dismutase [Mn], mitochondrial wild type, P04179 (protein)
chain: MLSRAVCGTSRQLAPVLGYLGSRQKHSLPDLPYDYGALEPHINAQIMQLHHSKHHAAYVNNLNVTEEKYQEALAKGDVTAQIALQPALKFNGGGHINHSIFWTNLSPNGGGEPKGELLEAIKRDFGSFDKFKEKLTAASVGVQGSGWGWLGFNKERGHLQIAACPNQDPLQGTTGLIPLLGIDVWEHAYYLQYKNVRPDYLKAIWNVINWENVTERYMACKK
unfolding enthalpy (calorimetric): 142 kcal/mol and 90.6 kcal/mol

From FireProtDB (doi:10.1021/bi972394l)
